In article PMC6358617:

tested on: rituximab (MabThera, lot N7075B10); assay: SAW; details: 20 mM Tris-HCl pH 7.6, 100 mM NaCl, 2 mM MgCl2, 5 mM KCl, 1 mM CaCl2, 0.02% Tween 20; SAW at 22 C (protein A chip-captured rituximab); ELASA at room …

Sequence | Kd
CGGCGGGGGGAGGATTGTGGTCTGCTCATGGCTGCCGTTT [RA1] | 683 nM
CGTGGGTGGGGATTGTGGTTTGGCTGATGGGGTGCTGGTT [RA6] | 887 nM
GGGGGTGAGGATTGTGGTTTGGCTTATTGGTTTGCTGGTG [RA3] | 713 nM
TATACTGGGCCGTGCGTGACTTTTCCGTGCTGCATGAGAG [RA4] | 354 nM
TGGGGGTAGGATTGTGGTTGGCTTTAATTGCTTTGGTGGT [RA2] | 394 nM
